We go through one substance from US20050245731A1.

Assay [1] has as its target TNF-α cell surface receptors on human HeLa and FS11 fibroblast cells (human). Briefly: 125I-TNF-α binding to cells; control without urine concentrate, condition B (37° C. 90′ prior to application of TNF-α).
Assay [2] has the same target. Put plainly: 125I-TNF-α binding to cells; urine concentrate holding TNF Inhibitory Protein applied at 37° C. 90′ prior to TNF-α and removed (condition B).
Assay [3] shares this target. Briefly: 125I-TNF-α binding to cells; control without urine concentrate, condition C (4° C. together with TNF-α).
Assay [4] has the same target. Briefly: 125I-TNF-α binding to cells; control without urine concentrate, condition A (4° C. 90′ prior to application of TNF-α).

Several values for one entry are separate records, joined by “and”; a condition that tells them apart may be missing. Identical values can stand only once.

TNF-α cell surface receptors on human HeLa and FS11 fibroblast cells (human), sequence (P19438 30-455): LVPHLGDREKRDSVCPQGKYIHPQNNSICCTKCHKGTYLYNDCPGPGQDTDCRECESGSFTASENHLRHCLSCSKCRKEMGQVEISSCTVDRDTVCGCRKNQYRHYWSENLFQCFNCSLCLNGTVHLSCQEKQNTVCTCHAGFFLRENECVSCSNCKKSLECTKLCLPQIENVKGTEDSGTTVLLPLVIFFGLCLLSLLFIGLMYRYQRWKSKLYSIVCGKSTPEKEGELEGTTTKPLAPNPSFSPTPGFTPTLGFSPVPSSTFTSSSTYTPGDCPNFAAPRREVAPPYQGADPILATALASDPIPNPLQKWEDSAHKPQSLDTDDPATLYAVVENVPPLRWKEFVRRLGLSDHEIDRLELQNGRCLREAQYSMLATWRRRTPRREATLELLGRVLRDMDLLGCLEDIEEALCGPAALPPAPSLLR

“Tumor Necrosis Factor-α (TNF-α) (from UniProt P01375 77-233) (ligand)”: the CPM in assay [1] is 5560 CPM; in assay [2] it was 4730 CPM and 4460 CPM; in assay [3] it was 4630 CPM; in assay [4], 5290 CPM.
